Target: T1, PD-1 biotinylated dimer (Homo sapiens, UniProt Q15116)
T1 construct: also called PD-1 dimer protein
Assay: BLI
Conditions: both partners purified

T1 sequence (Q15116 25-288): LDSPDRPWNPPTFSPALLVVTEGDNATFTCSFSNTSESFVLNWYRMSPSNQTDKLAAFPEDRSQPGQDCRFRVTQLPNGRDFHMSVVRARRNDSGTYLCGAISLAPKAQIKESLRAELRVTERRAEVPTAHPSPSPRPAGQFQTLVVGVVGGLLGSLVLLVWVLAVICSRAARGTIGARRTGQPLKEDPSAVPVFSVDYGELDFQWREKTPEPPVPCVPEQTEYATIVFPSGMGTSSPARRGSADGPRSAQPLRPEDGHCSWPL

B1: scFv-His of anti-PD-1 clone 135c139d6 (scFv, V domains shown)
VH: EVQLVQSGAEVKKPGESLKISCKGSGYSFTNFYIHWVRQAPGQRLEWMGSIYPNYGDTAYNQKFKDRFVFSLDTSVSTAYLQISSLKAEDTAVYYCARGYSYAMDYWGQGTTVTVSS
VL: DIQMTQSPSSVSASVGDRVTITCSASQGISGDLNWYQQKPGKAPKLLIYHTSSLHSGVPSRFSGSGSGTDFTLTISSLQPEDFATYYCQYYSKDLLTFGGGTKLEIK
notes: source: purified
  KD, fold lower than that of the scFv of clone A35: 4 times
